Measurements: publication PMC11507936

Molecular target: non-structural protein 3 (Nsp3) ubiquitin-like domain 1 (Ubl1), 1-111

Nucleocapsid protein (N) (from UniProt P0DTC9)
other: partition coefficient: weaker; reference 12.6 ± 0.1
